Results taken from the supplement of paper PMC9112550, “Optimization of the antimicrobial peptide Bac7 by deep mutational scanning” (BMC Biology, 2022).

System: Escherichia coli TOP10
Assay: shrunken log2 fold change of peptide-encoding DNA abundance (4.5 h post-induction vs induction); higher = less antimicrobial activity (less host growth inhibition)
Settings: time post-induction: 4.5 h; library: site-saturation at positions 5, 18, 19, 20
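Also: peptides expressed intracellularly from a pBAD plasmid library in pooled LB shake-flask culture, induced with 0.3% L-arabinose, DNA abundance read by NGS, three biological replicates, DESeq2 with apeglm shrinkage.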

Sequence: RRIRLRPPRLPRPRPRPWGKPRP
- shrunken log2 fold change: -0.0201

Sequence: RRIRCRPPRLPRPRPRPRSVPRP
- shrunken log2 fold change: 0.318

Sequence: RRIRSRPPRLPRPRPRPGYPPRP
- shrunken log2 fold change: -0.209

Sequence: RRIRMRPPRLPRPRPRPSHNPRP
- shrunken log2 fold change: -0.194

Sequence: RRIRFRPPRLPRPRPRPKNDPRP
- shrunken log2 fold change: -0.407

Sequence: RRIRIRPPRLPRPRPRPVFQPRP
- shrunken log2 fold change: -0.19

Sequence: RRIRFRPPRLPRPRPRPCYFPRP
- shrunken log2 fold change: -0.379

Sequence: RRIRDRPPRLPRPRPRPFAAPRP
- shrunken log2 fold change: 1.62

Sequence: RRIRVRPPRLPRPRPRPERSPRP
- shrunken log2 fold change: 0.276

Sequence: RRIRARPPRLPRPRPRPPDNPRP
- shrunken log2 fold change: 0.576

Sequence: RRIRHRPPRLPRPRPRPWVQPRP
- shrunken log2 fold change: 0.0187

Sequence: RRIRLRPPRLPRPRPRPEIQPRP
- shrunken log2 fold change: -0.0217

Sequence: RRIRQRPPRLPRPRPRPPSMPRP
- shrunken log2 fold change: -0.234

Sequence: RRIRVRPPRLPRPRPRPFVHPRP
- shrunken log2 fold change: -0.17

Sequence: RRIRQRPPRLPRPRPRPNSAPRP
- shrunken log2 fold change: -0.173

Sequence: RRIRVRPPRLPRPRPRPEETPRP
- shrunken log2 fold change: 0.00893

Sequence: RRIRTRPPRLPRPRPRPVVFPRP
- shrunken log2 fold change: -0.184

Sequence: RRIRMRPPRLPRPRPRPWCRPRP
- shrunken log2 fold change: 0.0521

Sequence: RRIRWRPPRLPRPRPRPDRPPRP
- shrunken log2 fold change: -0.0134

Sequence: RRIRPRPPRLPRPRPRPHACPRP
- shrunken log2 fold change: 0.00839

Sequence: RRIRFRPPRLPRPRPRPSIRPRP
- shrunken log2 fold change: -0.288

Sequence: RRIRERPPRLPRPRPRPWRKPRP
- shrunken log2 fold change: -0.173

Sequence: RRIRVRPPRLPRPRPRPMAKPRP
- shrunken log2 fold change: 0.0605

Sequence: RRIRNRPPRLPRPRPRPCTCPRP
- shrunken log2 fold change: -0.0075

Sequence: RRIRERPPRLPRPRPRPTYFPRP
- shrunken log2 fold change: -0.475

Sequence: RRIRKRPPRLPRPRPRPKMNPRP
- shrunken log2 fold change: 0.2

Sequence: RRIRYRPPRLPRPRPRPQLYPRP
- shrunken log2 fold change: -0.206

Sequence: RRIRRRPPRLPRPRPRPKVSPRP
- shrunken log2 fold change: 0.267

Sequence: RRIRTRPPRLPRPRPRPGDCPRP
- shrunken log2 fold change: -0.195

Sequence: RRIRLRPPRLPRPRPRPIIKPRP
- shrunken log2 fold change: -0.527

Sequence: RRIRRRPPRLPRPRPRPKYNPRP
- shrunken log2 fold change: -0.384

Sequence: RRIRVRPPRLPRPRPRPMWMPRP
- shrunken log2 fold change: 0.109

Sequence: RRIRKRPPRLPRPRPRPNARPRP
- shrunken log2 fold change: 0.076

Sequence: RRIRMRPPRLPRPRPRPKPQPRP
- shrunken log2 fold change: 1.41

Sequence: RRIRDRPPRLPRPRPRPNYTPRP
- shrunken log2 fold change: -0.771

Sequence: RRIRCRPPRLPRPRPRPCHYPRP
- shrunken log2 fold change: -0.403

Sequence: RRIRERPPRLPRPRPRPLKKPRP
- shrunken log2 fold change: 0.0403

Sequence: RRIRGRPPRLPRPRPRPHRIPRP
- shrunken log2 fold change: 0.00463

Sequence: RRIRPRPPRLPRPRPRPQLCPRP
- shrunken log2 fold change: 0.444

Sequence: RRIRHRPPRLPRPRPRPFEIPRP
- shrunken log2 fold change: -0.0931

Sequence: RRIRSRPPRLPRPRPRPSKQPRP
- shrunken log2 fold change: -0.225

Sequence: RRIRQRPPRLPRPRPRPKDWPRP
- shrunken log2 fold change: 0.377

Sequence: RRIRHRPPRLPRPRPRPHCSPRP
- shrunken log2 fold change: -0.124

Sequence: RRIRVRPPRLPRPRPRPPDTPRP
- shrunken log2 fold change: 0.166

Sequence: RRIRYRPPRLPRPRPRPKERPRP
- shrunken log2 fold change: -0.002

Sequence: RRIRNRPPRLPRPRPRPNDPPRP
- shrunken log2 fold change: 0.188

Sequence: RRIRTRPPRLPRPRPRPTFPPRP
- shrunken log2 fold change: -0.0187

Sequence: RRIRARPPRLPRPRPRPYPLPRP
- shrunken log2 fold change: -0.127

Sequence: RRIRSRPPRLPRPRPRPVEWPRP
- shrunken log2 fold change: 0.31

Sequence: RRIRPRPPRLPRPRPRPAKFPRP
- shrunken log2 fold change: 0.0407

Sequence: RRIRRRPPRLPRPRPRPLRCPRP
- shrunken log2 fold change: 0.714

Sequence: RRIRWRPPRLPRPRPRPFVLPRP
- shrunken log2 fold change: 0.231

Sequence: RRIRTRPPRLPRPRPRPLWFPRP
- shrunken log2 fold change: -0.489

Sequence: RRIRTRPPRLPRPRPRPCKSPRP
- shrunken log2 fold change: 0.075

Sequence: RRIRTRPPRLPRPRPRPQFPPRP
- shrunken log2 fold change: -0.0282

Sequence: RRIRYRPPRLPRPRPRPDFHPRP
- shrunken log2 fold change: -0.695

Sequence: RRIRPRPPRLPRPRPRPGKVPRP
- shrunken log2 fold change: -0.0669

Sequence: RRIRSRPPRLPRPRPRPTFIPRP
- shrunken log2 fold change: -0.173

Sequence: RRIRVRPPRLPRPRPRPDPCPRP
- shrunken log2 fold change: -0.0596

Sequence: RRIRIRPPRLPRPRPRPPQRPRP
- shrunken log2 fold change: 0.27
